Laboratory results reported in patent US20240058446A1, “CHIMERIC TIM4 RECEPTORS AND USES THEREOF” (CERO THERAPEUTICS, INC., priority 2019, published 2024).

B1: CTX140: Chimeric Tim4 receptor (SEQ ID NO:44): Tim4 binding domain, CD28 hinge, CD28 transmembrane, CD28 costimulatory, DAP12 signaling domain (protein)
chain: MSKEPLILWLMIEFWWLYLTPVTSETVVTEVLGHRVTLPCLYSSWSHNSNSMCWGKDQCPYSGCKEALIRTDGMRVTSRKSAKYRLQGTIPRGDVSLTILNPSESDSGVYCCRIEVPGWFNDVKINVRLNLQRASTTTHRTATTTTRRTTTTSPTTTRQMTTTPAALPTTVVTTPDLTTGTPLQMTTIAVFTTANTCLSLTPSTLPEEATGLLTPEPSKEGPILTAESETVLPSDSWSSVESTSADTVLLTSKESKVWDLPSTSHVSMWKTSDSVSSPQPGASDTAVPEQNKTTKTGQMDGIPMSMKNEMPISQIEVMYPPPYLDNEKSNGTIIHVKGKHLCPSPLFPGPSKPFWVLVVVGGVLACYSLLVTVAFIIFWVRSKRSRLLHSDYMNMTPRRPGPTRKHYQPYAPPRDFAAYRSYFLGRLVPRGRGAAEAATRKQRITETESPYQELQGQRSDVYSDLNTQRPYYK
modifications: Tim4 binding domain-CD28 hinge-CD28 transmembrane-CD28 costimulatory signaling domain-DAP12 signaling domain; SIGNAL (1)..(24)
B2: CTX137: Chimeric Tim4 receptor (SEQ ID NO:68): Tim4 binding domain, CD28 transmembrane, CD28 costimulatory, DAP12 signaling domain; expressed in T cells (protein)
chain: MSKEPLILWLMIEFWWLYLTPVTSETVVTEVLGHRVTLPCLYSSWSHNSNSMCWGKDQCPYSGCKEALIRTDGMRVTSRKSAKYRLQGTIPRGDVSLTILNPSESDSGVYCCRIEVPGWFNDVKINVRLNLQRASTTTHRTATTTTRRTTTTSPTTTRQMTTTPAALPTTVVTTPDLTTGTPLQMTTIAVFTTANTCLSLTPSTLPEEATGLLTPEPSKEGPILTAESETVLPSDSWSSVESTSADTVLLTSKESKVWDLPSTSHVSMWKTSDSVSSPQPGASDTAVPEQNKTTKTGQMDGIPMSMKNEMPISQFWVLVVVGGVLACYSLLVTVAFIIFWVRSKRSRLLHSDYMNMTPRRPGPTRKHYQPYAPPRDFAAYRSYFLGRLVPRGRGAAEAATRKQRITETESPYQELQGQRSDVYSDLNTQRPYYK
modifications: Tim4 binding domain-CD28 transmembrane-CD28 costimulatory signaling domain-DAP12 signaling domain; SIGNAL (1)..(24)
notes: expressed in T cells
B3: CTX143: Chimeric Tim4 receptor (SEQ ID NO:45): Tim4 binding domain, modified IgG4 hinge, CD28 transmembrane, CD28 costimulatory, DAP12 signaling domain (protein)
chain: MSKEPLILWLMIEFWWLYLTPVTSETVVTEVLGHRVTLPCLYSSWSHNSNSMCWGKDQCPYSGCKEALIRTDGMRVTSRKSAKYRLQGTIPRGDVSLTILNPSESDSGVYCCRIEVPGWFNDVKINVRLNLQRASTTTHRTATTTTRRTTTTSPTTTRQMTTTPAALPTTVVTTPDLTTGTPLQMTTIAVFTTANTCLSLTPSTLPEEATGLLTPEPSKEGPILTAESETVLPSDSWSSVESTSADTVLLTSKESKVWDLPSTSHVSMWKTSDSVSSPQPGASDTAVPEQNKTTKTGQMDGIPMSMKNEMPISQESKYGPPCPPCPFWVLVVVGGVLACYSLLVTVAFIIFWVRSKRSRLLHSDYMNMTPRRPGPTRKHYQPYAPPRDFAAYRSYFLGRLVPRGRGAAEAATRKQRITETESPYQELQGQRSDVYSDLNTQRPYYK
modifications: Tim4 binding domain-modified IgG4 hinge-CD28 transmembrane-CD28 costimulatory signaling domain-DAP12 signaling domain; SIGNAL (1)..(24)

Key:
[1] = test system: JeKo-1 mantle cell lymphoma cells; experiment: Incucyte co-culture of chimeric Tim4 receptor T cells with JeKo-1 mCherry+ cells; assay type: cell-based; details: 1:1 E:T ratio; T cells transduced with 5MOI; FIG. 17
Experimental: FIG. 17. Multiple chimeric Tim4 constructs eliminate ibrutinib treated JeKo-1 cells. T cells generated from healthy donor PBMCs were transduced with 5MOI of CTX137, CTX140, CTX143, or CTX156 (tEGFR control). Cells were cocultured at a 1:1 E:T ratio with Jeko-1 mCherry+ cells. Surviving Jeko-1 mCherry+ cells were counted every 2 hours and normalized to the count at 2 h. Wells were plated in duplicate. Error bars represent +/−SEM.
Chimeric Tim4 receptor (CTX137, CTX140, or CTX143) modified T cells were generated from healthy donor PBMCs. CD4+ and CD8+ T cells were isolated and mixed at a 1:1 ratio, then stimulated overnight with TransACT. Activated T cells were transduced with 5MOI of the indicated construct. Cells were used for Incucyte experiments 6 days after transduction. JeKo-1 mCherry+ cells were plated with chimeric Tim4 receptor-T cells at a 1:1 effector:target (E:T) ratio. Surviving Jeko-1 mCherry+ cells were counted every 2 hours and normalized to the count at 2 h. Wells were plated in duplicate.

Jeko-1 MCL tumor = experiment: JeKo-1 fLuc+ tumor model, chimeric Tim4 receptor T cells plus ibrutinib, bioluminescence imaging; assay type: in vivo; details: NSG mice, 1e6 Jeko-1 fLuc+ i.v.; ibrutinib 125 mg/kg daily for 3 days, then 1e6 T cells i.v. and 8 mg/kg ibrutinib daily; FIG. 18
Experimental: FIG. 18. […] NSG mice were inoculated i.v. with 1e6 Jeko-1 fLuc+ cells. 4 days after inoculation, mice were dosed daily with 125 mg/kg ibrutinib by oral gavage for 3 days. 7 days after inoculation, 1e6 chimeric Tim4 receptor-T cells were infused i.v. Following T cell infusion, mice were dosed daily with 8 mg/kg ibrutinib. N=10 mice per group. Chimeric Tim4 receptor-T cells were generated from healthy donor PBMCs. CD4+ and CD8+ T cells were isolated and mixed at a 1:1 ratio, then stimulated overnight with TransACT. Activated T cells were transduced with 5MOI of the indicated construct (CTX137, CTX140, or CTX156). Cells were used for Incucyte experiments 7 days after transduction. NSG mice were inoculated intravenously with 1e6 Jeko-1 fLuc+ cells. Mice were dosed with 125 mg/kg of Ibrutinib by oral gavage daily for 3 days, then transfused with 1e6 CER-T cells and dosed daily with 8 mg/kg Ibrutinib for the duration of the experiment. Tumor growth was monitored by bioluminescence imaging (BLI) (sum of photons from 8 sec exposure). n=10 for each group.

[2] = test system: JeKo-1 mantle cell lymphoma cells; experiment: Incucyte killing of ibrutinib pre-treated JeKo-1 mCherry+ cells by chimeric Tim4 receptor T cells; assay type: cell-based; details: JeKo-1 pre-treated with 25 μM ibrutinib for 20 hours; 2:1 effector:target ratio; 0.5 μM ibrutinib present; FIG. 16
Experimental: FIG. 16. Chimeric Tim4 receptor killing of ibrutinib pre-treated JeKo-1 cells. JeKo-1 mantle cell lymphoma cells engineered to express mCherry were pre-treated with 25 μM ibrutinib for 20 hours. T cells transduced with chimeric Tim4 receptor (CTX137) or CTX156 (tEGFR control) were co-cultured at a 2:1 effector:target ratio with JeKo-1 cells mCherry+ cells in the presence of 0.5 μM ibrutinib. Surviving JeKo-1 mCherry+ cells were counted every 2 hours and normalized to the count at 2 h. Wells were plated in duplicate. Error bars represent +/−SEM.
Chimeric Tim4 receptor-T cells were generated from healthy donor PBMCs. CD4+ and CD8+ T cells were isolated and mixed at a 1:1 ratio, then stimulated overnight with TransACT. Activated T cells were transduced with 5MOI of the indicated construct (CTX137 or CTX156). Cells were used for Incucyte experiments 6 days after transduction. JeKo-1 cells engineered to express mCherry were treated with 25 μM BTK inhibitor ibrutinib for 20 hours then washed. T cells and target cells were incubated at a 2:1 effector:target ratio in the presence of 0.5 μM ibrutinib. Surviving JeKo-1 mChery+ cells were counted every 2 hours and normalized to the count at 2 hours. Wells were plated in duplicate.

| Molecule | elimination of JeKo-1 cells (surviving mCherry+ cells normalized to count at 2 h) [1] | protection against JeKo-1 tumor (tumor growth by BLI) (Jeko-1 MCL tumor) | killing of ibrutinib pretreated JeKo-1 cells (surviving mCherry+ cells normalized to count at 2 h) [2] |
| --- | --- | --- | --- |
| B1 | eliminate JeKo-1 mantle cell lymphoma cells | provide early protection | – |
| B2 | eliminate JeKo-1 mantle cell lymphoma cells | provide early protection | induced killing |
| B3 | eliminate JeKo-1 mantle cell lymphoma cells | – | – |
